From patent US20060280745A1 (MEDICAL RESEARCH COUNCIL, published 2006)

Molecular target: T1, murine PrP^c (mouse, UniProt P04925 23-230)
T1 construct: also called mouse PrP^c; normal cellular prion protein
Assay: immunoblot of whole spleen homogenate (FIG. 5)

T1 sequence (P04925 23-230 limits assumed): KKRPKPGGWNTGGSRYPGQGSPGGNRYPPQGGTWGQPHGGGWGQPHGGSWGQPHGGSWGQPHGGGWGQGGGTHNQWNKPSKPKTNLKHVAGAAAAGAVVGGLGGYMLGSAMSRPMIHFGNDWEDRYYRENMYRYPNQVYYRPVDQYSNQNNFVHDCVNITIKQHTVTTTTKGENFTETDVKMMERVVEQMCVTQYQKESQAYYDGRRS

B1: ICSM 18 (antibody, V domains shown)
VH: EVQLQQSGPELVKPGSSVKISCKASRNTFTDYNLDWVKQSHGKTLEWIGNVYPNNGVTGYNQKFRGKATLTVDKSSSTAYMELHSLTSEDSAVYYCALYYYDVSYWGQGTLVTVSA
VL: QIVLTQSPAIMSASPGEKVTMTCSASSSVSYMHWYQQKSGTSPKRWIYDTSKLASGVPARFSGSGSGTSYSLTISSMEAEDAATYFCHQWRSNPYTFGGGTKLEIKR
notes: also called biotinylated ICSM 18
  binding result: binds
